The values below come from the domain aggregation screens of Martell et al. (2025).

The nature of the series: soluble fraction after stress (log2 fold change); higher = more stays soluble; pooled small domains, quantitative proteomics. The settings on record: stress: 50 degC. The method, boiled down:
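Pooled custom libraries of small protein domains were each held under stress at 50°C. The read-out, high-throughput quantitative proteomics, tracked how much of each protein stayed soluble. This is reported as a base-two log fold change used to indicate aggregation propensity. Higher values mean more protein remains in solution.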

As for “HMGAGFREAIPPALDGERIDRVVSLLAYVSRNRAAGALAAGSVSVDGEVVFQRSRRVREGEELVVTGFERE”, the “soluble fraction (log2)” value is -0.97. On to “HMINRMGRLVEALSHMIANTKPGARLPSEPELARQLGVSRATLREAMRTFEAQGMIHRRQGAGTFVVH”, for which the “soluble fraction (log2)” value was -0.402. In the case of “HMAAGVESLTEKEFAVASLVGGGASNREIAERLAMSERTVKSHLSSIFRKMDVRDRVQLALAMND” it was 0.00815; in that of “HMELDMTFGEKIQKLRKESGLSQEELSYQLGVSRQAISKWERDSGYPETEKIVRMSKIFDVTLDYLLNE”, -0.458.

As to “HMTAGTTALNKLQQGMSTQQVQAALGTPSDRTVKESGVELWKYYYPYENMLLYLKFRDGHLVSFGTN”, the “soluble fraction (log2)” value was -0.0161.

For the sequence “HMSDDSTIVELLASSLRRDIAFGTLLPDQKLKLNELRTRYGGSIHSMRETLRILSAEGLVEATAQRGFRVT”, the “soluble fraction (log2)” value was -0.0813. Regarding “HMEHDTVLSKVFRRLREAHVPLSLDDIYQGLRKTVNNNSEIREKIVTLQERGLVAEILGPKGGKKYVAKPT”, the “soluble fraction (log2)” value was -0.105.

With “HMSPAVSLITGKLGAETYYKQGLKKAKEKDYEGALDDLIKAYEFFPDKKIKTQVDKLASFLGKPPIL”, the “soluble fraction (log2)” value amounted to 0.0669.

For “HMTRHIQVNDSIASTPIEDVYFSTRTYNALLNNGISVIGDLSKYTHDDLYASFQGLGRAGVLEIEAYLRQD”, the “soluble fraction (log2)” value was -1.53. As for “HMAMSDFDALSNRISTLSQGRASAVRMKDGIVSLVLDIGGLSAEERKAMTAAIEGEGRGYPSVTQVRILET”, the “soluble fraction (log2)” value worked out at 0.0462.

“HMDAMLGEALRLIRVYHDLKQKQAAERLEVSTSYLSEIERGLKTPTLDIIQRYATVFDMPVSSIMFFSENL”: the “soluble fraction (log2)” value is -3.03. The same measure for “HMGRTVKGVNFVGLRDAGDPVDLAEIYSKEGADELVFLDITATHEKRKTLLDLVTRVAERINIPFTVGGGI”: -0.015.

In the case of “HMPIDNTLLSRITSLGVSTTEAEKLISKHGEEALKANLEVVEERLSKPNLPLLDSPAAYLKTALKNG”, the “soluble fraction (log2)” value amounted to 0.318. The same measure for “HMVAGHLQEKKGYFYMVLTYRDHEGKRKSKWLPTGLTIKGNKKRAQDLLQDARKNFVPDIPT”: -1.32; for “HMRLANGIGTVYKLSGNRRNPYIVRKTTGWEIDEESGKAKQKYITIGYAPTRAKGLEMLMDYNKNP”: -0.428; for “HMPSYYKELQNYSPENPVVKKRKVHPDVVNAIKYLAEITDGNPMLIKAYAQMILAHVFTTMPLIDKSV”: -0.128. In the case of “HMKRTRLEEAMDWLREQLNDGPVAYATLKDEAPKAEITLSTLRAAGEALRVDKQKKGVQWGGWTWSLPR” it was 0.0438; in that of “HMTGIESVKPSSDFTVEGNRIVAGDAEVEVYDLAGRKVNNNNLTTGVYIAKIAGSAESVKVFV”, 0.0109; in that of “HMSIYMNIYNEFKKYIIANVYKYDDKLPSVRSIALEYGINPNTVQRAFQLLEDEGYIKTISKKGVYVNYR”, -0.781. Regarding “HMIDFDEIEILSSSKIEKIENSEYLKSSIFEKDSNQYIYRLSFENRDQLKNFKKEIEDIDQIKKIDVTY”, the “soluble fraction (log2)” value was 0.103. With “HMKLFGTPGSPFARKVRIVLEEKRIPHEYIIERGSAPGSRVPQYNPLGKVPTLVLDDGRGLYDSPVIVEYL”, the “soluble fraction (log2)” value was -0.492. On to “HMNSKMTYSELVTNITNKEVESIKISSTGSTASVKLKNSKSEKEVNIPSLDSFMSYTEEYLKTGDFTLDEE”, for which the “soluble fraction (log2)” value is -0.144.

For “HMSKKLLVLQTSDDAKAKDVLSQNGYQLDDGDKLSIIETEQTKMADVIKLLSDNAIDIEDVQHVH”, the “soluble fraction (log2)” value amounted to 0.217. The same measure for “HMYSKVSFTVSVGMTSERVSASLKALGIIDDSAKFNRYLVSNGYSTRIKVGTVELQAGQSYAEIASKLV”: -0.826. As to “HMKPSTVSVPDVSGDKLSTAKMIIRKSGLKVGDVQKIEDDNVGAGKVVRTNPSAGSKKREGSSVDIFVASA”, the “soluble fraction (log2)” value stood at 0.16.

As for “HMGEQETILKGDVNRDGVVDVNDVTHLQIHISNDDKNPLIDVTNKAWFDAADMYGDGKLDILDATALQIYI”, the “soluble fraction (log2)” value amounted to 0.11.

Consider “HMTTSNPMNVTSAEAAFDNGTDRLNAFISGRTTSEERSTYFPLFVRETKEDFLRAVGRFNEYIANHG”, for which the “soluble fraction (log2)” value came to 0.0364. For the sequence “HMNKNQIGTNAGIVWKLLSDNVHWEYDKLKHASGLSDRDLNAAIGWLAREDKIDFDIDEQHDRLFL”, the “soluble fraction (log2)” value was -0.395. The same measure for “HMSAPAKKPKIKVDLSKVHAGTIVRHKGYGLGQVKGIDGAIIVVTFDGVDKKFQFPGGFENGFLFLTED”: -0.0311. In the case of “HMADYYSILGLTKNATDIEIKSAFRKLAKIYHPDKNPDPNARVLFEHILKAYDTLINPHSRRRYDSL” it was -0.349.

With “HMAEVALFVNGSDVNLRSGPGQESTRVIGSLNLGDEVRIKSQNGQWREVYVPKTRQVGWVAHWLLSEAPP”, the “soluble fraction (log2)” value is 0.192.

With “HMKSLLTARQLEVFEIARNKGYWTTPRKISLVELSKLLDISKSTLSVLLHSIEGKVMEEFYEEIRQ”, the “soluble fraction (log2)” value is -1.81.

Consider “HMAKITERVMGSAALRDYDPNYLPDEVLKALDGYPPFDGYVYKDGILYARVKIGDTFFIIPPI”, for which the “soluble fraction (log2)” value was -2.27.

On to “HMAESNQIQLSDVREALNMIGPASWLDLVHYLDTGKGRGGQRLRRMLKSLSRSGEIELVARGTYQITDN”, for which the “soluble fraction (log2)” value was -0.422. As to “HMPSLNDRPDDVLYLFSYFLQSFSHRQVSLPKILKKALIQHDWWGNIRELHSVALRYYIFGDTLNGAYDSL”, the “soluble fraction (log2)” value was -1.3. In the case of “HMGRGAAKGPLKELGLDPVTGRPLVVKDGKFGMYVTDGETNAGLRRGDLVEQLTLDRGMELLAERRARADQ” it was 0.203. Regarding “HMPDAIPLETIIKNVNVLAGFLINSKTFTEDDIVMAYNNIMKIKGDHTDEKTLTNDVYTLLTEMN”, the “soluble fraction (log2)” value is -0.469. With “HMDPEIADAVNTIKKYLESHYSEVITRKKIEELVHLNQDHINREFKKQTGYTLMEYVQHYRILMAKKMLRV”, the “soluble fraction (log2)” value is -0.243. As to “HMKLNETIAEARKRKGLTQEQLAQKLYVTRQAVSRWERGEVVPGIDMLKLIAITLEEPIVHLL”, the “soluble fraction (log2)” value is -0.769. With “HMFTEIMAERNALIQAIQQNLPPQHIQSILSKKNKFRLEDLTNEELRDVWQWILNQRQAQQHQQQ”, the “soluble fraction (log2)” value was -0.171. The same measure for “HMINDPSALGQRAFVDELLWMAGYVPEKIEIYQTLPNNSRVYRVKLDSVNGGFIFIRWDKKKKEHYV”: 0.114; for “HMPTNSDRLIGSDGVVSSKIDNLQGTGKVYISGLTWSARTIDGSEAEEGDIVTVEKIEGATLYVTKR”: 0.0599. “HMLALKSGQVVVGTIIRRLDNTTAMLRIGNQLFETSFAKGLPKSNHILLRYDAMQGNRFIFTMVE”: the “soluble fraction (log2)” value was -0.191. Consider “HMYQFFVDPGQIQGKRVTITGSDVNHIKNVLRMRIGEEIAVSNGKDGLEYRFGIDEILEDEVIGTLRFVKE”, for which the “soluble fraction (log2)” value was -0.968.

Consider “HMPHTDATDKQIIALILETLKDGQKHSVSEMTFPGIPREKTAQLLHQMIEEETVRIQNGVLFLPH”, for which the “soluble fraction (log2)” value was -0.109. In the case of “HMGIRQGKVTSTFVNVRSGASTANAKVGELHKGDVVSLIEKVANFWRIGPGQFVSADYIQVLAS” it was -0.508; in that of “HMNEDTEDIKNINSLVNKLTENNFDIIRDSIVKLINKEHLIPYIIETIIEKSILHHRYVHLYVSILKE”, 0.0794; in that of “HMIKEGDLVFIWNPKKGDSFLIKVQPGQSQGTHFGQIKHSEIMEHNYGEGIRTPKGQVYYLLRPTLGEFTR”, -1.14.

As for “HMESKKKTYTVKSGDTLVSILKREGVPQELIFKDYLGLFLELNPQISDINKLRVGQEIVLPVPG”, the “soluble fraction (log2)” value stood at 0.0119.

For “HMLLLHINQMGVTEFSQLELNHVRSWLANLQIKGAARSSITRRVVSVRAFTYWGAKNGWLASDIGRDLVAP”, the “soluble fraction (log2)” value is -0.277.

Consider “HMKAETILAIPENQPERLFPNNEDEARKIYRDLAREWHTDRNKSPKAQDVFSHLSKLYDIVIDRIKNKTWT”, for which the “soluble fraction (log2)” value amounted to 0.152. The same measure for “HMDRSQRDQEQAQLIRLVQQAFDDSGQRYGAEKIRITLAEGGIRVSTKRIAAIMQELDLRSI”: -1.36; for “HMSLDLERAVALLSLPRPVGNHPEDGELVEAGIGRYGPYVKHGSKYANLPDADEVFTIGMNRAVEVLAAK”: -0.0399; for “HMKKAITMGDIITVKELSEKIGIQVAEIIKKLMGLGILATINKELDYDTANVIASEFHIELERK”: -0.00712. The same measure for “HMPDTETLTPRQRQILDLVQELGFTTIETLAERFGVSAQTVRREIIRLQAGNFLQRFHGGAGLASGGIRSA”: -0.632; for “HMSKQLGFKIKTARRKLNISQGDLSKKLEISPSYLNLIESGKRKVSTDLLMKASEILNLDLKKL”: -0.281; for “HMSDRESYGRYRNVSLTLSEYESLKNEYPLYADKYIERLSEYMETAGKHYNNHYATILSWLSKDIK”: -0.487. The same measure for “HMGVPTEQEIGKRILAWRKLRGMTLQQLADKAGVGLTTIHNLETGLWYAKMPTYLYIAEALGVSLDALIYG”: -1.42. On to “HMLPDLQKAIDTFLYEVDSRINTSFEELIDKLNSKEEAVAFFLALLEAVRWGFIKAEQESNSINIKK”, for which the “soluble fraction (log2)” value was -0.565. “HMQLDLSDPSKNKLDSIVSLPIKSLKAVEANGEILFMSENGRFVLRGQLYDIWYKDTLDTSAQIQDAATRI”: the “soluble fraction (log2)” value was determined as 0.109. The same measure for “HMRLLAESIARGLDPEGSGGLWAKEAGAEALKLMETLAAEAPHGGSFTAAAYRDLFESLVHQGEVREA”: 0.0472; for “HMPHITDAEWEVMRVVWANHHVTSKEVISILEDKMNWKATTIKTLLGRLVEKGALSTEQDGKKFIYTAR”: -1.5. In the case of “HMAHETIDVAALRVGMFVQLDLGWLSHPFPLSSFRISSEDQIATIRALGLKRVRWSSEQSDS” it was -4.29; in that of “HMKLRYRTQEELLGVAREYRRRGLPLSVIVIDFYHWTKFGDWKFDPAYWPDPVGMVRELRDMGVEAAV”, -0.203; in that of “HMQVSDVTELRTILEKVITENESVATEFKEGKDAAMNFLVGQGMKATRGAADPALLKEIITGIL”, 0.0889. In the case of “HMATPKYMELVRWINEQIESKNLVPGQKMYSENTLKEMFGVSRQTVRHAIGVLENEGVIRRIQGSGTYIN” it was -0.829; in that of “HMYMWQVEDLLRANELDIENIKKTIIDHYQLDDAQKSELTRWYEDLINMMRLEGVTKEGHLQINK”, -1.41. In the case of “HMTKVMVPNVVGMSRGEAEEALRGVKLQVDLKREVSDDPEVKPEEVLRQTPDAQTSVPQGSVVTLYVADKP”, the “soluble fraction (log2)” value was 0.355.
